{"source": "paper PMC11087509", "about": "“Multimodal binding and inhibition of bacterial ribosomes by the antimicrobial peptides Api137 and Api88” (Nature Communications, 2024)", "target": "purified E. coli 30S ribosomal subunit (E. coli (endogenous in MRE600))", "assay": "fluorescence polarisation; cf-labeled peptide (10 µL of 40 nmol/L) added to a 2-fold dilution series (22 steps, 10 µL) of pure 70S ribosome, 50S or 30S subunit; ribosome preparation buffer (20 mmol/L HEPES-KOH, 6 mmol/L MgCl2, 30 mmol/L NH4Cl, pH 7.6); 28 ± 1 °C, 90 min; apparent Kd (average over at least two or three sites)", "note": "[ ]: non-standard residue; d: D form."}
{"binder": "{5(6)‑carboxyfluorescein}-VDKPPYLPRPRPPR[dR]IYN[dR]-NH2", "note": "[cf-Onc112 (5(6)-carboxyfluorescein-labeled Onc112, …rIYNr-NH2)]", "values": [{"measurement": "fold weaker binding than to the 50S subunit", "result": 23, "unit": "fold"}]}
